Laboratory results reported in patent publication US8188081B2, “Methods of treating inflammation using prokineticin 1 receptor antagonists” (Janssen Pharmaceutica, NV, priority 2005, dated 2012).
One block for each molecule: values may come before it.

What was measured:
PK1R [1] = molecular target: T1, PK1R (Rattus norvegicus, UniProt Q8R416); settings: test compound 1 μM basolateral, 15 min; PK1 10 and 100 nM cumulative; FIGS. 9-11
Description: Methodology. The basic methodology for Using-type ion flux chambers used in these studies was the same as that described in detail above with the following modifications to the experimental protocol. […] The responses to two sequential EFS were used to guage tissue viability and comparability of the responses of individual tissues from each rat and between rats. Tissue conductance was measured at periodic intervals as changes in the amplitudes of brief short-circuit current responses evoked by application of 1 mV amplitude bi-polar pulses from a pulse generator using Ohm's Law. Three to four tissues from each rat were studied. The tissues from a given animal were grouped and assigned accordingly: one control tissue which received only vehicle followed by two consecutive doses of PK1 ligand added in a cumulative fashion to the basolateral surface of the tissue; the remaining two to three tissues from the same animal were assigned to be exposed to a given PK1 receptor antagonist (e.g., 3-4 tissues from 1 rat: Control, Antagonist1, Antagonist2, Antagonist3). Test compound was added to the basolateral tissue side reservoir at a final concentration of 1 μM and allowed a 15 minute incubation period prior to challenge with the PK1 peptide. At the end of this 15 minute exposure period, PK1 ligand at 10 and 100 nM was added in a cumulative fashion to each tissue to characterize the inhibitory effect of the test compound. At the conclusion of the experiment, EFS was re-applied to guage tissue viability and stability of responsiveness.

PK1R [2] = molecular target: T1, PK1R; experiment: Inhibition of PK1-induced contraction of rat ileal longitudinal smooth muscle by PK1R antagonists (organ bath); parameters: from tissue; host or cells: isolated rat ileum (organ bath); settings: FIG. 19
Excerpt: The effects of PK1 on isolated segments of rodent gastrointestinal (GI) tissues have been studied ex vivo, using a “myobath” apparatus. This organ bath apparatus is used to measure the changes in contractile activity of GI smooth muscle following application of PK1, in the presence or absence of compounds that block PK1 receptor (PK1R)-mediated increases in intracellular free Ca^2+ in PK1R-transfected cells in vitro.
Methods. Rodents (mice, rats, and guinea pigs) were euthanized by […], and exsanguinated. Segments of GI tissues, including stomach, duodenum, jejunum, ileum, proximal colon and distal colon were resected from the animals and mounted, either as intact segments (i.e., 15 mm long cylinders of intestine) or flat strips (˜2.5 mm×15 mm) oriented along the longitudinal muscle axis. In some experiments flat strips were oriented along the circular muscle axis. […]
The tissues were lengthened to impart a resting load of between […] (depending on the preparation), and equilibrated under these conditions for 1 hr, changing the bathing solution to fresh KRB every 15 min. […] The response to PK1 under these conditions is compared to the response of the same tissue preparation to ACh and the contraction (or relaxation) calculated as a percent of the response to ACh. […]

[3] = tested on: ileum mucosal tissues from PK1 receptor knock-out mice; experiment: PK1-evoked Isc in ileum mucosal tissues from PK1 receptor knock-out mice; settings: exogenous PK1 peptide; FIG. 5
rat small intestine [4] = experiment: Enteropooling and accumulation of fluid in rat small intestine in vivo; settings: 30 min
Description: Methodology. Experiments were carried out to gravimetrically measure the in vivo pro-secretory effect of PK1 peptide in the rat small bowel. The effect of PK1 peptide on stimulation of enteropooling and accumulation of fluid in the gut of intact rats was evaluated using two different routes of administration. Non-fasted rats were randomly assigned to two experimental groups (n=10 per group) in two separate experiments. In the first experiment, each rat was given an oral bolus (1.5 ml) of 6% carmine dye in 0.5% methylcellulose wt/vol containing a dose of PK1 peptide at 100 μg/kg or buffer vehicle. (See FIG. 12). […] (See FIG. 13). Thirty minutes later, rats were rapidly euthanized by cervical dislocation after inhalation anesthesia with 100% carbon dioxide and the entire small intestine was excised from the pylorus to the ileocecal junction. The total small bowel length was measured and then divided equally into thirds using 4-0 silk suture loops to ligate, isolate, and separate each segment to prevent leakage of intraluminal contents. […] Net fluid content weight was calculated as the difference between intact and empty intestinal segment weights to the nearest milligram and normalized to segment wet tissue weight in grams.

rat small intestine [5] = experiment: Small intestinal transit of an oral carmine test meal in rats in vivo; settings: oral PK1 100 μg/kg; 30 min; FIG. 14
Description: Methodology. Small intestinal transit. Rats received a bolus of 1.5 ml total volume that contained a 6% solution of carmine dye in 0.5% methyl cellulose (wt/vol) together with a dose of either PK1 (100 μg/kg) or vehicle by oral feeding tube. After 30 min, the rats were rapidly euthanized by cervical dislocation after inhalation anesthesia with 100% carbon dioxide. The entire small intestine of each rat was carefully resected starting at the ileal-cecal junction first and working back toward the pylorus of the stomach until the entire small intestine had been removed intact. The excised small bowel was arranged lengthwise along a metric straight-edge, and the length of the entire small intestine was measured in centimeters. The leading edge of the carmine dye front was visualized and the distance traveled by the carmine was also measured and calculated as a percentage of the total excised length of the small intestine. Transit was expressed as the percentage of the total intestinal length traveled by the carmine dye in 30 minutes.

rat ileum = experiment: Contractility of isolated rat GI segments ex vivo (myobath organ bath), response to PK1

T1 sequence (Q8R416 whole entry): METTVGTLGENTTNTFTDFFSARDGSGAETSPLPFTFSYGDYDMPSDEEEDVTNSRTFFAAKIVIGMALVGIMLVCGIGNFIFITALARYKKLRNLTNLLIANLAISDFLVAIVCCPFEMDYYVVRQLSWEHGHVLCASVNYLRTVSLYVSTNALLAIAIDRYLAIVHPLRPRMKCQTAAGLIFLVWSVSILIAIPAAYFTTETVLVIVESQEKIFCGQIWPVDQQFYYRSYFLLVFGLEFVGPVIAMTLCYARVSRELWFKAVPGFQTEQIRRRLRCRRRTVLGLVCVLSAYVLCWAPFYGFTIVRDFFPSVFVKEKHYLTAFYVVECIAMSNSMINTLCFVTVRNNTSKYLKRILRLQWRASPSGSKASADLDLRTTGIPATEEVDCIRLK

Molecule: [H]/N=C(\N)NCCNc1nc(=O)n(Cc2ccc(F)cc2)c(=O)n1Cc1ccc(OC)cc1 [JNJ 27624675]
- suppression of the PK1 evoked increase in Isc (PK1R [1]): suppressed

B1: PK1: recombinant human Prokineticin 1 expressed in HEK 293 cells, FLAG tag cleaved; mixture of full-length and four C-terminal residue truncated product (protein, UniProt P58294 20-105, looked up)
Prokineticin-1: AVITGACERDVQCGAGTCCAISLWLRGLRMCTPLGREGEECHPGSHKVPFFRKRKHHTCPCLPNLLCSRFPDGRYRCSMDLKNINF
modifications: mixture with C-terminal 4-residue truncated form
notes: recombinant human Prokineticin 1 expressed in HEK 293 cells, FLAG tag cleaved; mixture of full-length and four C-terminal residue truncated product
- change in Isc in tissues from PK1 receptor knock-out mice compared to wild-type littermates [3]: did not elicit a significant change in Isc
- fluid accumulation in rat small bowel in vivo (rat small intestine [4]; intraperitoneal PK1 100 μg/kg, FIG. 13): stimulates fluid accumulation
- fluid accumulation in rat small bowel in vivo (rat small intestine [4]; oral PK1 100 μg/kg, FIG. 12): stimulates fluid accumulation
- small intestinal transit of a carmine test meal compared to vehicle (rat small intestine [5]): significantly accelerated
- response of intestinal tissues (mid-duodenum, jejunum, distal ileum) (rat ileum; PK1 100 nM): evoked longitudinal contractions
- response of proximal and distal colon (rat ileum; PK1 100 nM): evoked longitudinal relaxations
- time to peak contraction, early phase (rat ileum; isolated rat ileum): 6.4 min
- time to peak contraction, late phase (rat ileum; isolated rat ileum): 53.8 min

Second part, led by results:

- suppression of the PK1 evoked increase in Isc (PK1R [1]): suppressed
Molecule: COc1ccc(Cn2c(NCCn3c(N)nc4ccccc43)nc(=O)n(Cc3ccc(F)cc3)c2=O)cc1 [JNJ 28845557]
- early versus late response inhibition (PK1R [2]): more potent and more effective at inhibition of the early response
- effect on the PK1-induced contraction of rat ileal longitudinal smooth muscle (PK1R [2]; early and late components): concentration-dependent inhibitory effect

- suppression of the PK1 evoked increase in Isc (PK1R [1]): suppressed
Molecule: COc1ccc(Cn2c(NCCNC(=N)NC(C)C)nc(=O)n(Cc3ccc(Cl)c(Cl)c3)c2=O)cc1 [JNJ 28480894]
